What was measured:
OR5B12 = molecular target: T1, OR5B12 (Homo sapiens, UniProt Q96R08, C141R); test: CRE-luciferase assay, HEK293T cells expressing OR5B12 (wild-type / modified C-terminus); format: cell-based; settings: OR5B12 variant
T1 construct: Improved functional expression of modified OR-genes containing the truncated, optimized C-terminus; expressed in transfected cells; host or cells: HEK293T stably expressing human RTP1S(V227I) and RTP2(L220R)
T1 sequence (Q96R08 with tags, fused parts or gaps C141R): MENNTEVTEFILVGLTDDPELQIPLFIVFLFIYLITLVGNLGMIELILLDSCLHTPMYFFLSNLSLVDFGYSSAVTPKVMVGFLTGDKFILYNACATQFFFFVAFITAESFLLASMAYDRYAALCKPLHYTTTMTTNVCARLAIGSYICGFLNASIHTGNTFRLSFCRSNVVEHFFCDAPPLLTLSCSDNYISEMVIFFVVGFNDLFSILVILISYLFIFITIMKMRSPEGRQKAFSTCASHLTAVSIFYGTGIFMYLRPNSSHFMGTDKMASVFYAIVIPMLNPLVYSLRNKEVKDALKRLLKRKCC

OR7C1 = molecular target: T2, OR7C1 (Homo sapiens, UniProt O76099, D296E/G302K/M297V/R299D/T295K/V126I); test: CRE-luciferase assay, HEK293T cells expressing OR7C1 (wild-type / modified C-terminus); format: cell-based; settings: OR7C1 variant, 1 μM Ambermax
T2 construct: Improved functional expression of modified OR-genes containing the truncated, optimized C-terminus; expressed in transfected cells; host or cells: HEK293T stably expressing human RTP1S(V227I) and RTP2(L220R)
T2 sequence (O76099 with tags, fused parts or gaps V126I/T295K/D296E/M297V/R299D/G302K): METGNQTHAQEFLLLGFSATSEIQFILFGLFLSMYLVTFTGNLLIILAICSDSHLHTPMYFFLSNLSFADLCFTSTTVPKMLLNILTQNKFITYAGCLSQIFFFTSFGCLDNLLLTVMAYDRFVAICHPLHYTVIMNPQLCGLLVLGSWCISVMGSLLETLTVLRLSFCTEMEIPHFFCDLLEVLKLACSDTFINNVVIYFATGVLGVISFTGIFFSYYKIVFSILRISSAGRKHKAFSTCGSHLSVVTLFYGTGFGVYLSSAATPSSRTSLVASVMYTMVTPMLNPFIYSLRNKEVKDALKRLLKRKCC
Text: To test for possible variants of the sequence […]CC (SEQ ID NO: 86) leading to similar improved functional expression, different point mutations were introduced into the first 16 amino acids of this sequence (corresponding to […], SEQ ID NO: 10) and the variants were fused after the TM7 with OR7C1. […] The test concentrations were selected to fall into the range of partial activity of the wild-type sequence.

Substance	% of the activation by the optimized sequence RNKEVKDALKRLLKRKCC (OR7C1)	further results
SEQ ID NO: 151 (RNKEVKDALKRLLKRKCCRR; source 1..20: note = C-terminal domain sequence)	–	% of the activation by the optimized sequence RNKEVKDALKRLLKRKCC (OR5B12; 31 μM Hedione HC): 240.6%; % of the activation by the optimized sequence RNKEVKDALKRLLKRKCC (OR5B12; 62.5 μM Hedione HC): 229.5%
His Pro	114.6%	–
SEQ ID NO: 197 (RNKEVKDALKRLLERKCC; source 1..18: note = C-terminal domain sequence)	5.6%	–
SEQ ID NO: 107 (RNKDVKDALKRLLKRKCC; source 1..18: note = C-terminal domain sequence)	53.2%	–
SEQ ID NO: 103 (RNKEVKDALKRLFKRKCC; source 1..18: note = C-terminal domain sequence)	207.1%	–
Phe Arg	181.7%	–
SEQ ID NO: 324 (RNKEVKIALKRLLKRKCC; source 1..18: note = C-terminal domain sequence)	81.0%	–
SEQ ID NO: 195 (RNKEVKDALKRLRKRKCC; source 1..18: note = C-terminal domain sequence)	14.1%	–
Ala Glu	2.1%	–
His Asp	1.6%	–
Arg Gly	139.9%	–
SEQ ID NO: 108 (RNKQVKDALKRLLKRKCC; source 1..18: note = C-terminal domain sequence)	42.0%	–
SEQ ID NO: 123 (RNKEVKRALKRLLKRKRR; source 1..18: note = C-terminal domain sequence)	312.9%	–
SEQ ID NO: 99 (RNKEVKDAIKRLLKRKCC; source 1..18: note = C-terminal domain sequence)	174.6%	–
Ile Ala	0.0%	–
Pro Arg	142.3%	–
Gln Glu	0.0%	–
SEQ ID NO: 112 (RNKEVKDALKRILKRKCC; source 1..18: note = C-terminal domain sequence)	53.2%	–
SEQ ID NO: 186 (KNKEVKDALKRLLKRKCC; source 1..18: note = C-terminal domain sequence)	26.0%	–

Substance	% of the activation by the optimized sequence RNKEVKDALKRLLKRKCC (OR7C1)	further results
Ala Ala	2.1%	–
SEQ ID NO: 119 (RNKEVKDALRKLLKRKCC; source 1..18: note = C-terminal domain sequence)	157.1%	–
SEQ ID NO: 120 (RNKEVKDALKRLLRRRCC; source 1..18: note = C-terminal domain sequence)	90.4%	–
Arg Pro	83.9%	–
SEQ ID NO: 100 (RNKEVKDALRRLLKRKCC; source 1..18: note = C-terminal domain sequence)	86.0%	–
Arg Tyr	72.0%	–
SEQ ID NO: 196 (RNKEVKDALKRLKKRKCC; source 1..18: note = C-terminal domain sequence)	5.7%	–
SEQ ID NO: 129 (RNKEVKKALKRLLKRKRF; source 1..18: note = C-terminal domain sequence)	294.8%	–
SEQ ID NO: 187 (RTKEVKDALKRLLKRKCC; source 1..18: note = C-terminal domain sequence)	3.3%	–
SEQ ID NO: 330 (RNKEVKWALKRLLKRKCC; source 1..18: note = C-terminal domain sequence)	17.4%	–
Tyr Leu	95.4%	–
SEQ ID NO: 128 (RNKEVKKALKRLLKRKYP; source 1..18: note = C-terminal domain sequence)	206.9%	–
SEQ ID NO: 154 (RNKEVKDALKRLLKRKCRRRR; source 1..21: note = C-terminal domain sequence)	263.5%	–
SEQ ID NO: 91 (RNKEVKKALKRLLKRKCC; source 1..18: note = C-terminal domain sequence)	140.8%	–
SEQ ID NO: 125 (RNKEVKRALKRLLKRKRF; source 1..18: note = C-terminal domain sequence)	254.2%	–
SEQ ID NO: 95 (RNKEVKVALKRLLKRKCC; source 1..18: note = C-terminal domain sequence)	122.1%	–
SEQ ID NO: 105 (RNKEVKDALKRLLKKKCC; source 1..18: note = C-terminal domain sequence)	106.7%	–
SEQ ID NO: 127 (RNKEVKKALKRLLKRKRR; source 1..18: note = C-terminal domain sequence)	308.5%	–
Pro Gln	211.8%	–

Substance	% of the activation by the optimized sequence RNKEVKDALKRLLKRKCC (OR7C1)	further results
Gly Leu	91.4%	–
Ser Ile	225.3%	–
Lys Ala	3.5%	–
Glu Lys	153.0%	–
SEQ ID NO: 194 (RNKEVKDALKRVVKRKCC; source 1..18: note = C-terminal domain sequence)	30.4%	–
SEQ ID NO: 109 (RNKELKDALKRLLKRKCC; source 1..18: note = C-terminal domain sequence)	43.8%	–
SEQ ID NO: 191 (RNKEVKDVLKRLLKRKCC; source 1..18: note = C-terminal domain sequence)	3.9%	–
Cys Phe	100.5%	–
SEQ ID NO: 328 (RNKEVKSALKRLLKRKCC; source 1..18: note = C-terminal domain sequence)	99.1%	–
SEQ ID NO: 94 (RNKEVKRALKRLLKRKCC; source 1..18: note = C-terminal domain sequence)	176.6%	–
SEQ ID NO: 321 (RNKEVKCALKRLLKRKCC; source 1..18: note = C-terminal domain sequence)	46.0%	–
SEQ ID NO: 113 (RNKEVKDALKRLLGRKCC; source 1..18: note = C-terminal domain sequence)	63.2%	–
SEQ ID NO: 323 (RNKEVKHALKRLLKRKCC; source 1..18: note = C-terminal domain sequence)	65.6%	–
Cys Gly	142.3%	–
Arg Lys	2.0%	–
SEQ ID NO: 111 (RNKEVKDALHRLLKRKCC; source 1..18: note = C-terminal domain sequence)	44.4%	–
SEQ ID NO: 331 (RNKEVKYALKRLLKRKCC; source 1..18: note = C-terminal domain sequence)	59.4%	–
Ser Gln	1.0%	–
SEQ ID NO: 97 (RNKEVKQALKRLLKRKCC; source 1..18: note = C-terminal domain sequence)	128.4%	–

— patent publication US20260210939A1, “MODIFIED OLFACTORY RECEPTORS” (GIVAUDAN SA, priority 2022, published 2026)
